Consider 167 variants from the RNAGym collection of RNA variant scans (doi:10.7554/elife.80360).

B1: HDV Ribozyme (parent)
chain: GGCCGGCAUGGUCCCAGCCUCCUCGCUGGCGCCGGCUGGGCAACAUUCCGAGGGGACCGUCCCCUCGGUAAUGGCGAAUGGGACCCA

In this data set the parent is B1. Nature of the data set: self-cleavage, relative activity (ratio to wild type); higher = more cleavage; co-transcriptional.
In the case of A56C C58A, the self-cleavage came to 0.923. For G55A G68U the value was 0.965; for A56G C86U, 0.987. Then C57G G76C, with 0.895. For C57G G76U the value was 0.984. C57G G76A: the self-cleavage was determined as 1.04. Then G55C U69G, with 0.984; and G55C U69C, with 1. For A56C C63A the value was 1.04; for A56C C63U, 1.01.

With G55U C85G, the self-cleavage stood at 0.927.

As for G55U C85U, the self-cleavage came to 0.92. In the case of G55U C85A, the self-cleavage was found to be 1.09. For A56C G59U the value was 0.848. For A56C G59A the value was 1.05. For A56C C64U the value was 1.12; for A56C C64A, 0.911; for G55U, 1.01. Regarding G55C, the self-cleavage stood at 1.02. For G55C C57U the value was 0.976; for C57A C58A, 1.07. In the case of A56G U69A, the self-cleavage came to 0.906. Then A56G U69C, with 1.32; and A56U U69A, with 1.04; and A56C U60A, with 0.937. Then A56C U60G, with 0.68; and A56C G80C, with 0.189; and A56C G80A, with 0.292. Then G55U A71U, with 0.786; and G55U A71G, with 1.04. Turning to G55U U72G, the self-cleavage worked out at 0.652. Then A56G U60A, with 0.914. Then A56G U60C, with 1.21; and C57A U79C, with 0.429; and G55U A70U, with 1.02. Then C57A G73U, with 0.322; and A56C A77U, with 0.437; and A56G, with 0.995. In the case of A56C, the self-cleavage amounted to 1. In the case of A56U, the self-cleavage was 0.989. For A56G A87C the value was 0.993. Then G55U C61U, with 0.859. Then G55A C58U, with 1.07; and G55A C58A, with 0.978. For the variant C57G G80A, the self-cleavage amounted to 0.208. For C57A U60G the value was 0.831; for A56U G74A, 0.681. Then A56U G74U, with 0.718; and A56G C57U, with 0.985. Then C57G C61A, with 1.03; and G55U C63G, with 0.695; and G55U C63U, with 0.997. As for G55A G59U, the self-cleavage turned out to be 0.973. Take G55A G59A: the self-cleavage was found to be 1.13. Then C57G U65A, with 1.11; and C57G U65C, with 0.96; and G55C A70C, with 0.932. Then G55C A70U, with 0.96. Then A56G C75A, with 0; and A56G C75G, with 0.175. Take C57A A70C: the self-cleavage worked out at 0.773. For C57A A70G the value was 0.852; for G55C A87C, 1.11; for G55C A87U, 1.02.

For G55C A87G, the self-cleavage is 0.953. Take G55C G59U: the self-cleavage was determined as 0.87. For G55C G59A the value was 1.06; for C57G U60G, 0.95. For the variant G55C C62A, the self-cleavage came out at 1.04. For G55C G80A the value was 0.34; for A56U U79G, 0.787. For A56U U79A the value was 0.569. For A56U U79C the value was 0.429; for G55U A78G, 0.684; for G55U A78U, 0.224. G55C U79A: the self-cleavage worked out at 0.527. For A56G C58U the value was 0.862. As for A56G C58A, the self-cleavage is 1.12.

G55C C61U: the self-cleavage turned out to be 1. Consider G55U G67U, for which the self-cleavage is 1.07.

In the case of C57A A71C, the self-cleavage worked out at 0.866. Regarding G55U U65A, the self-cleavage stood at 0.891. For G55U U65G the value was 0.847; for G55C G73A, 0.751. Then A56C G73C, with 0.536.

Take G55C C85G: the self-cleavage is 1.15. For A56U C84U the value was 0.808.

On to G55C G68U, for which the self-cleavage is 1.08. Then A56C G68U, with 1.08; and A56C G68A, with 1.11. Then G55C A77U, with 0.65; and C57G G81A, with 0.509; and G55C G74U, with 0.652.

For the variant G55C G74A, the self-cleavage was 0.538. Then G55C G74C, with 0.297; and A56U C58U, with 0.985; and G55C C84G, with 0.712. For G55C C84U the value was 0.817; for A56U G76A, 0.939. Then C57G C58G, with 0.943; and C57G C58A, with 1.26; and G55U C86U, with 0.923.

Consider G55U C86A, for which the self-cleavage came to 0.911. Then A56U C64A, with 0.899; and A56U C64U, with 1.07; and A56U C64G, with 0.882. Take A56G A78G: the self-cleavage is 0.615. Then A56G A83C, with 0.0639. Turning to G55A C61U, the self-cleavage is 0.96. For G55U C84U the value was 0.743.

As to G55U C84G, the self-cleavage came out at 0.546. For A56U G82C the value was 0.172; for A56U U60A, 1.13. For the variant A56U U60G, the self-cleavage came to 1.07.

Consider A56U G81A, for which the self-cleavage amounted to 0.492. For G55C A78C the value was 0.111. For G55C A78G the value was 0.525.

On to G55C A78U, for which the self-cleavage was found to be 0.324. Then C57A G82C, with 0.298; and C57A G82A, with 0.554; and C57A G80C, with 0.166. Then G55A U69C, with 0.918. With G55A U69G, the self-cleavage was 0.942. For G55U A77G the value was 0.607; for G55U A77U, 0.453. As to C57G A70U, the self-cleavage is 0.96. For C57G A70C the value was 0.959; for C57G G59C, 0.969; for C57G G59A, 0.997. Then C57G G59U, with 0.978; and C57G G74U, with 0.388. Then C57G G74A, with 0.277; and G55A A87U, with 1; and G55A A87G, with 0.966. Take A56C G67U: the self-cleavage was 0.814.

For A56C G67C, the self-cleavage worked out at 1.01. For C57G C86G the value was 0.831; for C57G C86A, 0.656; for C57G C86U, 0.815. For A56U U65A the value was 1; for G55U A56G, 0.912.

As to A56G G59A, the self-cleavage came out at 0.849. Then A56U U72C, with 0.489; and G55A G74C, with 0.208; and C57A A87G, with 1.07. For A56U C63U the value was 0.799. For A56U C63G the value was 0.815; for G55A C63G, 0.632. For G55A C63A, the self-cleavage is 1.21. As to C57A C66A, the self-cleavage was 1.18. Then G55C C75G, with 0.208; and G55A C84G, with 0.635. Then G55A C84A, with 0.992; and G55C C64U, with 1.12. For G55C C64G, the self-cleavage worked out at 0.953. Then A56U A78G, with 0.684. For C57G G73A the value was 0.658; for C57G G73C, 0.495. For C57A C84U the value was 0.935; for A56C G76U, 1.19; for A56U A77G, 1.01.

As to G55A C85G, the self-cleavage was found to be 0.962.

Regarding C57G A83U, the self-cleavage came out at 0.587.

As to C57G A83C, the self-cleavage amounted to 0.554.

Regarding G55C U72C, the self-cleavage worked out at 0.798. Then G55A U65G, with 1.09; and G55U G74A, with 0.668.
